{"source": "the supplement of paper PMC10724198", "note": "± gives the standard deviation of the averaged measurements.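 Further: PSI is a weighted mean of sequencing reads over stability bins, variants kept only with over 10 reads, mCherry proximal and sfGFP distal, peptide attached via GGGS linker.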"}
{"system": "Saccharomyces cerevisiae", "assay": "protein stability index of tFT-peptide fusion (C-terminal peptide) (PSI (0-1 scale)); higher = more stable (slower turnover)", "details": "genetic background: wild type; temperature: 30 C"}
{"sequence": "PYPVRSRPPAPA", "protein stability index": "0.6726 ± 0.0039"}
{"sequence": "PYSFDTNFVLIS", "protein stability index": "0.643 ± 0.1"}
{"sequence": "PYTPRSTSPPPL", "protein stability index": "0.7702 ± 0.0066"}
{"sequence": "QAGSTEERFCGG", "protein stability index": "0.664 ± 0.02"}
{"sequence": "QAKKSLTTKTSD", "protein stability index": "0.658 ± 0.024"}
{"sequence": "QASRGSLPSEIE", "protein stability index": "0.6414 ± 0.0029"}
{"sequence": "QCESVRLNFGGR", "protein stability index": "0.704 ± 0.021"}
{"sequence": "QDAPPSTPPRPL", "protein stability index": "0.786 ± 0.15"}
{"sequence": "QDFDHPNSIRLP", "protein stability index": "0.671 ± 0.027"}
{"sequence": "QEKTKTYPIPQR", "protein stability index": "0.688 ± 0.041"}
{"sequence": "QERWGRGWGTRG", "protein stability index": "0.709 ± 0.072"}
{"sequence": "QESKRKDMKERN", "protein stability index": "0.75 ± 0.049"}
{"sequence": "QEVTEVFSSTSY", "protein stability index": "0.658 ± 0.01"}
{"sequence": "QEWAQYTHSEQP", "protein stability index": "0.735 ± 0.026"}
{"sequence": "QFDRDCAWRPDV", "protein stability index": "0.653 ± 0.039"}
{"sequence": "QFGPSENVEFRS", "protein stability index": "0.742 ± 0.036"}
{"sequence": "QGDPTCLKGINE", "protein stability index": "0.669 ± 0.05"}
{"sequence": "QGGREGSRQRRV", "protein stability index": "0.629 ± 0.013"}
{"sequence": "QGIKRPSSNKSK", "protein stability index": "0.731 ± 0.13"}
{"sequence": "QGNEQFRYKILQ", "protein stability index": "0.598 ± 0.098"}
{"sequence": "QGSRRPRSVVWG", "protein stability index": "0.708 ± 0.038"}
{"sequence": "QGTNKRRNKNWE", "protein stability index": "0.704 ± 0.03"}
{"sequence": "QGVGDILARVQG", "protein stability index": "0.697 ± 0.048"}
{"sequence": "QHFIRGWAWPTV", "protein stability index": "0.729 ± 0.034"}
{"sequence": "QHHRTSIPSSPV", "protein stability index": "0.671 ± 0.025"}
{"sequence": "QIGKQAAATGTA", "protein stability index": "0.708 ± 0.049"}
{"sequence": "QIHGQKNFKTLD", "protein stability index": "0.704 ± 0.078"}
{"sequence": "QIIRKKSKVPTH", "protein stability index": "0.686 ± 0.057"}
{"sequence": "QKDTGKETTYRA", "protein stability index": "0.681 ± 0.037"}
{"sequence": "QKKELKTKKKER", "protein stability index": "0.663 ± 0.016"}
{"sequence": "QKKKKKNTKKKL", "protein stability index": "0.701 ± 0.054"}
{"sequence": "QKKNQNKQEQKL", "protein stability index": "0.683 ± 0.021"}
{"sequence": "QKKNSKKIKPKR", "protein stability index": "0.694 ± 0.026"}
{"sequence": "QKKRKKTNQKNL", "protein stability index": "0.621 ± 0.041"}
{"sequence": "QKNKNTEKINTK", "protein stability index": "0.663 ± 0.018"}
{"sequence": "QKRKQKKIIQRM", "protein stability index": "0.652 ± 0.013"}
{"sequence": "QKTLKPEQVAEH", "protein stability index": "0.68 ± 0.027"}
{"sequence": "QKTVRDIRIAAL", "protein stability index": "0.591 ± 0.086"}
{"sequence": "QLETFGRDLTIP", "protein stability index": "0.716 ± 0.11"}
{"sequence": "QLGGLHIPHPLR", "protein stability index": "0.899 ± 0.028"}
{"sequence": "QNKKNKNKKKKE", "protein stability index": "0.706 ± 0.027"}
{"sequence": "QNKTQKSKKKKS", "protein stability index": "0.734 ± 0.038"}
{"sequence": "QPPLSDYHQARR", "protein stability index": "0.683 ± 0.023"}
{"sequence": "QPPPPPPRPPPP", "protein stability index": "0.504 ± 0.016"}
{"sequence": "QPPPPSPPPPLP", "protein stability index": "0.653 ± 0.047"}
{"sequence": "QPTCSLRAGPRD", "protein stability index": "0.713 ± 0.036"}
{"sequence": "QPVGAAQWGSQS", "protein stability index": "0.715 ± 0.028"}
{"sequence": "QQRKGTKDNGRE", "protein stability index": "0.707 ± 0.095"}
{"sequence": "QREKGEKERTET", "protein stability index": "0.6783 ± 0.004"}
{"sequence": "QRGGEGWILGGV", "protein stability index": "0.687 ± 0.026"}
{"sequence": "QRPSRAQGKSYE", "protein stability index": "0.766 ± 0.014"}
{"sequence": "QRRRYKHEIKRM", "protein stability index": "0.648 ± 0.0085"}
{"sequence": "QRSEHGAHPTEP", "protein stability index": "0.701 ± 0.035"}
{"sequence": "QRSFSLRLSAPV", "protein stability index": "0.681 ± 0.029"}
{"sequence": "QRTAACGSQRNR", "protein stability index": "0.682 ± 0.025"}
{"sequence": "QSILVCELGMEG", "protein stability index": "0.67 ± 0.051"}
{"sequence": "QSKIKNKNIKIK", "protein stability index": "0.671 ± 0.017"}
{"sequence": "QSLRRLSSSSCI", "protein stability index": "0.707 ± 0.058"}
{"sequence": "QSRAMFELMGIS", "protein stability index": "0.652 ± 0.004"}
{"sequence": "QSRHCHPTPKRL", "protein stability index": "0.65 ± 0.031"}
{"sequence": "QSRYASDLRNGL", "protein stability index": "0.699 ± 0.065"}
{"sequence": "QSSWVGRWVRGG", "protein stability index": "0.659 ± 0.02"}
{"sequence": "QSVSSTGQARLS", "protein stability index": "0.682 ± 0.033"}
{"sequence": "QSWVNIGCRGAW", "protein stability index": "0.72 ± 0.012"}
{"sequence": "QTATIKGTLIAM", "protein stability index": "0.585 ± 0.0076"}
{"sequence": "QTDRPPPVSPPR", "protein stability index": "0.671 ± 0.047"}
{"sequence": "QTKSPAKREKTC", "protein stability index": "0.665 ± 0.058"}
{"sequence": "QTVFRQRLKEPF", "protein stability index": "0.644 ± 0.038"}
{"sequence": "QVFTLFPASYPL", "protein stability index": "0.688 ± 0.057"}
{"sequence": "QVKESDGEATKS", "protein stability index": "0.592 ± 0.024"}
{"sequence": "QVPDPSVNQPPS", "protein stability index": "0.699 ± 0.028"}
{"sequence": "QWAAVCAVVGGG", "protein stability index": "0.684 ± 0.055"}
{"sequence": "QWAGGQERTAGK", "protein stability index": "0.583 ± 0.024"}
{"sequence": "QWIINVSRSIRK", "protein stability index": "0.654 ± 0.031"}
{"sequence": "RAARQRSVYQHG", "protein stability index": "0.6481 ± 0.0037"}
{"sequence": "RACSLWVSVVQP", "protein stability index": "0.67873 ± 2.3e-05"}
{"sequence": "RADGHGARFRVR", "protein stability index": "0.799 ± 0.009"}
{"sequence": "RAFDGYNSVDML", "protein stability index": "0.663 ± 0.023"}
{"sequence": "RAKLKKNKRRCK", "protein stability index": "0.719 ± 0.0067"}
{"sequence": "RALGKRFIQARD", "protein stability index": "0.727 ± 0.022"}
{"sequence": "RALPPPLCPPPH", "protein stability index": "0.606 ± 0.056"}
{"sequence": "RAPMQPTATQAP", "protein stability index": "0.654 ± 0.035"}
{"sequence": "RAPPKTTPHPAE", "protein stability index": "0.693 ± 0.052"}
{"sequence": "RARELGVPPPPP", "protein stability index": "0.579 ± 0.066"}
{"sequence": "RARGGGAEPGRN", "protein stability index": "0.685 ± 0.027"}
{"sequence": "RARGQPTKDIAS", "protein stability index": "0.643 ± 0.018"}
{"sequence": "RARNRPKTEYHI", "protein stability index": "0.6826 ± 0.0025"}
{"sequence": "RASFLLPPPAPP", "protein stability index": "0.6311 ± 0.0049"}
{"sequence": "RAVFFLQAHCSL", "protein stability index": "0.674 ± 0.0072"}
{"sequence": "RAWPLLPTCPPP", "protein stability index": "0.7 ± 0.019"}
{"sequence": "RCFGPPSRLAYF", "protein stability index": "0.683 ± 0.017"}
{"sequence": "RCGDGLSRLTPL", "protein stability index": "0.71 ± 0.032"}
{"sequence": "RCGGGGSVSFWW", "protein stability index": "0.693 ± 0.049"}
{"sequence": "RCGLSGGRPPVL", "protein stability index": "0.6475 ± 0.0016"}
{"sequence": "RCGRVEKRIGRV", "protein stability index": "0.756 ± 0.086"}
{"sequence": "RCIAAEFFRVHP", "protein stability index": "0.685 ± 0.019"}
{"sequence": "RCIASHRLSLRT", "protein stability index": "0.682 ± 0.037"}
{"sequence": "RCTRAAGLAAPA", "protein stability index": "0.691 ± 0.0088"}
{"sequence": "RCTWEATYNLRY", "protein stability index": "0.749 ± 0.092"}
{"sequence": "RCVSLDVPPTGA", "protein stability index": "0.688 ± 0.013"}
{"sequence": "RDALVNADKIGR", "protein stability index": "0.703 ± 0.061"}
